Test results reported in patent US20200347144A1 (SHANGHAI HYAMAB BIOTECH, published 2020).

Columns and labels:
[1] = molecular target: T1, mouse 4-1BB protein (extracellular domain) (mouse, UniProt P20334 24-187); assay: ELISA, coated mouse 4-1BB; Ab 0.0032 ug/ml
T1 construct: extracellular domain; also called mouse 4-1BB-his; mouse 4-1BB-hFc protein
T1 sequence (looked up): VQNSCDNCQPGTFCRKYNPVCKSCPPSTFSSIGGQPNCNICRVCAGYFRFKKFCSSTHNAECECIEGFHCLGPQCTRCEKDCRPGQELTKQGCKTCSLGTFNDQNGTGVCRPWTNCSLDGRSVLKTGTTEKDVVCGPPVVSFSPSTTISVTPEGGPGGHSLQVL
Procedure: (§1) The purified immunogen A (4-1BB-hFc), monkey 4-1BB-his, and mouse 4-1BB-his obtained in Example 1 [for the preparation method, see step 1 of Example 1, preparation of immunogen A], of which the extracellular domain of monkey-derived 4-1BB protein (purchased from ACRO biosystems), the extracellular domain of mouse 4-1BB protein (purchased from sino biological) or other immune detection point proteins respectively were diluted with PBS to a final concentration of 1.0 μg/mL, then added with […] per well to 96-well ELISA plate. It was sealed with plastic film and incubated at 4° C. overnight. The next day, the plate was washed twice with the plate-washing solution [PBS containing 0.01% (v/v) Tween20] and blocking solution [PBS containing 0.01% (v/v) Tween 20 and 1% (v/v) BSA] was added and blocked at room temperature for 2 hours. The blocking solution was discarded and 100 μl of the purified 4-1BB antibody obtained in Example 2 was added per well. After incubated at 37° C. for 2 hours, the plate was washed 3 times with a plate-washing solution [PBS containing 0.01% (v/v) Tween20]. A secondary antibody (purchased from Sigma) labeled with HRP (horseradish peroxidase) was added, and after incubated at 37° C. for 2 hours, the plate was washed 3 times with a plate-washing solution [PBS containing 0.01% (v/v) Tween20]. 100 μl of TMB substrate was added per well. After incubated for 30 minutes at room temperature, 100 μl of stop buffer (1.0N HCl) was added per well. The A450 nm values were read using an ELISA plate reader (SpectraMax 384plus, Molecular Device).

[2] = molecular target: T1, mouse 4-1BB protein (extracellular …); assay: ELISA: mouse 4-1BB protein coated at 1.0 µg/mL (target by Table 10; the legend paragraph 119 says monkey 4-1BB-hFc), antibody titrated, HRP secondary antibody, OD450
Procedure: as §1

[3] = molecular target: T2, human 4-1BB, full length, on transfected cells (human, UniProt Q07011 24-255); assay: FACS blocking assay on CHOK1-h4-1BB cells: antibody titrated against his-muCD8a-4-1BBL, bound ligand detected with Alexa 488 anti-mouse CD8a; inhibition rate (%) relative to human IgG
T2 construct: whole, on cells; also called CHOK1-h4-1BB
T2 sequence (Q07011 24-255): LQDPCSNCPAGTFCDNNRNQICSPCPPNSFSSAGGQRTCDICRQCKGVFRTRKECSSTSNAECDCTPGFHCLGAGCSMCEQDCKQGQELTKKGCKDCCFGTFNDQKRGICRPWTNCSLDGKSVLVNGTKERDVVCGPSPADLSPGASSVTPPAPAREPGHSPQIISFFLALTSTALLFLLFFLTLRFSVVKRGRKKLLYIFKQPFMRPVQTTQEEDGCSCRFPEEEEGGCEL
Procedure: It was washed three times with FACS buffer by centrifugation, and 100 μl of fixative [4% (v/v) paraformaldehyde] per well was added to suspend cells, and it was washed twice with FACS buffer by centrifugation after 10 minutes. The cells were suspended with 100 microliters of FACS buffer, and the results were detected and analyzed with FACS (FACS Calibur, purchased from BD). […] The IgG control is human IgG, and the data in the table is the inhibition rate of the ligand binding by the fully human 4-1BB antibody relative to the control group (human IgG).

[4] = molecular target: T3, his-tagged human 4-1BB protein antigen (human, UniProt Q07011 24-186); assay: SPR (Biacore T200), antibody captured on anti-human Fc, his-tagged human 4-1BB as analyte
T3 construct: not shown: his tag
Text: The Biacore T200 instrument (purchased) was used to determine the affinity constant. The specific operation and method were based on the instrument manual and the detailed method provided by the manufacturer. Sensors labeled with anti-human Fc were combined with anti-4-1BB fully human antibodies to detect the binding and dissociation of five different gradients of his-tagged human 4-1BB protein antigen. Then software was used to fit the dissociation constant and the binding constant. The affinity constant is the ratio of the dissociation constant and the binding constant.

[5] = molecular target: T2, human 4-1BB, full length, on …; assay: cell-based or functional assay

B1: 57B3D10 (antibody, V domains shown)
VH: QVQLQESGPGLVKPSETLSLTCTVSGGSISSYYWSWIRQPPGKGLEWIGYIYYSGSTNYNPSLKSRVTISVDTSKSQFSLKLTSVTAADTAVYYCAKDSDYYGSGSYSYWYFDLWGRGTLVTVSS
VL: EIVMTQSPATLSVSPGERATLSCRASQSVSSNLAWYQQKPGQAPRLLIYGASTRAPGIPARFSGSGSGTEFTLTISSLQSEDFAVYYCQQYNNWPLTFGGGTKVEIK
notes: also called 4-1BB fully human antibody 57B3D10
**Q.** For B1, which OD450 nm [1] is on record?
**A.** The OD450 nm was 0.2 OD450 nm.

**Q.** Does B1 bind [2]?
**A.** Result: no binding (tested: 10 µg/ml)

**Q.** What about the “IC50 (read off the curve)” value [3] of the same binder?
**A.** The value was about 2 µg/mL.

**Q.** And the Kd [4]?
**A.** Its Kd is 21.5 nM.

**Q.** What about the koff [4] of the same binder?
**A.** Its koff is 0.0124 s⁻¹.

**Q.** What about the kon [4] of the same binder?
**A.** The kon was 574000 M⁻¹ s⁻¹.

**Q.** And the “NFκB luciferase reporter, 4-1BB+ HEK293; EC50; cross-linked” value [5]?
**A.** Its value is 0.94 nM.

**Q.** And the “NFκB luciferase reporter, 4-1BB+ HEK293; fluorescence multiple vs human IgG; cross-linked; Ab 0.00013 ug/ml” value [5]?
**A.** The value was 0.9 fold.

**Q.** What about the “NFκB luciferase reporter, 4-1BB+ HEK293; fluorescence multiple vs human IgG; cross-linked; Ab 0.00064 ug/ml” value [5] of the same binder?
**A.** Its value is 1.15 fold.

**Q.** And the “NFκB luciferase reporter, 4-1BB+ HEK293; fluorescence multiple vs human IgG; cross-linked; Ab 0.0032 ug/ml” value [5]?
**A.** The value was 1.1 fold.

**Q.** And the “NFκB luciferase reporter, 4-1BB+ HEK293; fluorescence multiple vs human IgG; cross-linked; Ab 0.016 ug/ml” value [5]?
**A.** Its value is 2.35 fold.

**Q.** And the “NFκB luciferase reporter, 4-1BB+ HEK293; fluorescence multiple vs human IgG; cross-linked; Ab 0.08 ug/ml” value [5]?
**A.** The value was 3.3 fold.

**Q.** And the “NFκB luciferase reporter, 4-1BB+ HEK293; fluorescence multiple vs human IgG; cross-linked; Ab 0.4 ug/ml” value [5]?
**A.** The value was 3.6 fold.

**Q.** And the “NFκB luciferase reporter, 4-1BB+ HEK293; fluorescence multiple vs human IgG; cross-linked; Ab 2 ug/ml” value [5]?
**A.** Its value is 5.55 fold.

**Q.** What about the “NFκB luciferase reporter, 4-1BB+ HEK293; fluorescence multiple vs human IgG; cross-linked; Ab 10 ug/ml” value [5] of the same binder?
**A.** Its value is 4.3 fold.

**Q.** And the “NFκB luciferase reporter, 4-1BB+ HEK293; fluorescence multiple vs human IgG; non-cross-linked; Ab 0.00013 ug/ml” value [5]?
**A.** Its value is 0.95 fold.

**Q.** What about the “NFκB luciferase reporter, 4-1BB+ HEK293; fluorescence multiple vs human IgG; non-cross-linked; Ab 0.00064 ug/ml” value [5] of the same binder?
**A.** Its value is 0.9 fold.

**Q.** And the “NFκB luciferase reporter, 4-1BB+ HEK293; fluorescence multiple vs human IgG; non-cross-linked; Ab 0.0032 ug/ml” value [5]?
**A.** The value was 1.4 fold.

**Q.** What about the “NFκB luciferase reporter, 4-1BB+ HEK293; fluorescence multiple vs human IgG; non-cross-linked; Ab 0.016 ug/ml” value [5] of the same binder?
**A.** The value was 1.4 fold.

**Q.** And the “NFκB luciferase reporter, 4-1BB+ HEK293; fluorescence multiple vs human IgG; non-cross-linked; Ab 0.08 ug/ml” value [5]?
**A.** The value was 2.7 fold.

**Q.** And the “NFκB luciferase reporter, 4-1BB+ HEK293; fluorescence multiple vs human IgG; non-cross-linked; Ab 0.4 ug/ml” value [5]?
**A.** Its value is 3.5 fold.

**Q.** And the “NFκB luciferase reporter, 4-1BB+ HEK293; fluorescence multiple vs human IgG; non-cross-linked; Ab 2 ug/ml” value [5]?
**A.** Its value is 5 fold.

**Q.** What about the “NFκB luciferase reporter, 4-1BB+ HEK293; fluorescence multiple vs human IgG; non-cross-linked; Ab 10 ug/ml” value [5] of the same binder?
**A.** The value was 7.5 fold.

B2: 113F6C6 (antibody, V domains shown)
VH: QVQLVESGGGVVQPGRSLRLSCAASGLTFSSYGMHWVRQAPGKGLEWVAVIWYDGSNKYYADSVKGRFTISRDNSKNTLYLQMNSLRAEDTAVYYCAREEVLWFGELSYNYYYGMDVWGQGTTVTVSS
VL: DIQMTQSPSSLSASVGDRVTITCRASQGISNYLAWYQQKPGKVPKLLIYAASTLQSGVPSRFSGSGSGTDFTLTISSLQPEDVATYYCQKYNSVPLTFGGGTKVEIK
notes: also called 4-1BB fully human antibody 113F6C6; 113F6F6
**Q.** What does the source list for B2?
**A.** OD450 nm [1]: 0.05 OD450 nm; binding result [2]: no binding (tested: 10 µg/ml); Kd [4]: 17.6 nM; koff [4]: 0.03 s⁻¹; kon [4]: 1.68e+06 M⁻¹ s⁻¹; NFκB luciferase reporter, 4-1BB+ HEK293; EC50; cross-linked [5]: 0.41 nM; NFκB luciferase reporter, 4-1BB+ HEK293; EC50; non-cross-linked [5]: 3.46 nM; NFκB luciferase reporter, 4-1BB+ HEK293; fluorescence multiple vs human IgG; cross-linked; Ab 0.00013 ug/ml [5]: 0.7 fold; NFκB luciferase reporter, 4-1BB+ HEK293; fluorescence multiple vs human IgG; cross-linked; Ab 0.00064 ug/ml [5]: 1.3 fold; NFκB luciferase reporter, 4-1BB+ HEK293; fluorescence multiple vs human IgG; cross-linked; Ab 0.0032 ug/ml [5]: 2.15 fold; NFκB luciferase reporter, 4-1BB+ HEK293; fluorescence multiple vs human IgG; cross-linked; Ab 0.016 ug/ml [5]: 6.55 fold; NFκB luciferase reporter, 4-1BB+ HEK293; fluorescence multiple vs human IgG; cross-linked; Ab 0.08 ug/ml [5]: 14.6 fold; NFκB luciferase reporter, 4-1BB+ HEK293; fluorescence multiple vs human IgG; cross-linked; Ab 0.4 ug/ml [5]: 14.8 fold; NFκB luciferase reporter, 4-1BB+ HEK293; fluorescence multiple vs human IgG; cross-linked; Ab 2 ug/ml [5]: 17.1 fold; NFκB luciferase reporter, 4-1BB+ HEK293; fluorescence multiple vs human IgG; cross-linked; Ab 10 ug/ml [5]: 13.6 fold; NFκB luciferase reporter, 4-1BB+ HEK293; fluorescence multiple vs human IgG; non-cross-linked; Ab 0.00013 ug/ml [5]: 1.25 fold; NFκB luciferase reporter, 4-1BB+ HEK293; fluorescence multiple vs human IgG; non-cross-linked; Ab 0.00064 ug/ml [5]: 0.95 fold; NFκB luciferase reporter, 4-1BB+ HEK293; fluorescence multiple vs human IgG; non-cross-linked; Ab 0.0032 ug/ml [5]: 1.3 fold; NFκB luciferase reporter, 4-1BB+ HEK293; fluorescence multiple vs human IgG; non-cross-linked; Ab 0.016 ug/ml [5]: 4.35 fold; NFκB luciferase reporter, 4-1BB+ HEK293; fluorescence multiple vs human IgG; non-cross-linked; Ab 0.08 ug/ml [5]: 12.7 fold; NFκB luciferase reporter, 4-1BB+ HEK293; fluorescence multiple vs human IgG; non-cross-linked; Ab 0.4 ug/ml [5]: 12.1 fold; NFκB luciferase reporter, 4-1BB+ HEK293; fluorescence multiple vs human IgG; non-cross-linked; Ab 2 ug/ml [5]: 23 fold; NFκB luciferase reporter, 4-1BB+ HEK293; fluorescence multiple vs human IgG; non-cross-linked; Ab 10 ug/ml [5]: 22.1 fold

B3: 118F3A2 (antibody, V domains shown)
VH: QVQLQQWGAGLLKPSETLSLTCGVYGGSFSTNYWSWIRQSPGKGLEWIGEINHSGNTEYNPSLKSRLTISIDTSKNQFSLKLTSVTAADTAVYYCARMGYHSPSFDFWGQGVLVTVSS
VL: KIVMTQSPATLSVSPGERATLPCRVSQGIGSNLAWYQQKPGQAPRLLIYGASTRATGVPARFSGSGSGSEFTLTISSLQSEDLALYYCQQYNNWPLTFGGGTKVEIK
**Q.** Which OD450 nm [1] does the source give for B3 here?
**A.** The OD450 nm was 0.11 OD450 nm.

**Q.** Does B3 bind [2]?
**A.** Result: no binding (tested: 10 µg/ml)

B4: 170D7F2 (antibody, V domains shown)
VH: QVQLVQSGAEVKKPGASVKVSCKASGYTFTSYDINWVRQATGQGLEWMGWMNPNSGNTGYAQKFQGRVTMTRNTSISTAYMELSSLRSEDTAVYYCARETGPFDYWGQGTLVTVSS
VL: DIQMTQSPSSLSASVGDRVTITCRASQRINNYLNWYQQKPGKAPKLLIYGASSLQSGVPSRFSGSGSGTDFTLTISSLQPEDFATYYCQQSYSTPFTFGPGTKVDIK
**Q.** With B4 as the binder, how does the OD450 nm [1] read?
**A.** The OD450 nm was 0.14 OD450 nm.

**Q.** Does B4 bind [2]?
**A.** Result: no binding (tested: 10 µg/ml)

B5: 172E3E3 (antibody, V domains shown)
VH: QVQLQESGPGLVKPSGTLSLTCAVSGGSISSSNWWSWVRQPPGKGLEWIGEIYHSGSTNYNPSLKSRVTISVDKSKNQLSLNLSSVTAADTAVYYCARQGGVAGTLYWYFDLWGRGTLVTVSS
VL: DIVMTQSPLSLPVTPGEPASISCRSSQGLLHSNGYNYLDWYLQKPGQSPQLLIYLGSNRASGVPDRFIGSGSGTDFTLKIRRVEAEDVGVYYCMQVLQTPWTFGQGTKVEIK
**Q.** Which OD450 nm [1] does the source give for B5 here?
**A.** The OD450 nm was 0.05 OD450 nm.

**Q.** Does B5 bind [2]?
**A.** Result: no binding (tested: 10 µg/ml)
